For two substances, Kd and stoichiometry N results are on record in paper doi:10.1101/2021.03.03.433722.

This experiment addresses MvaT F36D/M44D (P. aeruginosa) (UniProt Q9HW86). Briefly: ITC. (In ITC the heat of successive injections is recorded.)

Usually Kd stands for a measure of binding affinity in units of concentration. Read a low Kd as a tighter complex. What is called stoichiometry N is a count of units in the complex or per binding partner. Regarding gp4 K42E/K45E (natural protein), the Kd was 1.36 µM and the stoichiometry N is 0.52.
On the same counts, the results for “gp4 of Pseudomonas phage LUZ24 (natural protein)” are 0.17 µM and 0.56.
